Results taken from a protein production outcome set (Wang et al. 2014).

Experiment: label from the status in PepcDB records
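Note: failed if final PepcDB status was selected cloned or expressed and not failed if soluble or beyond.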

Row | Sequence | protein production
1 | MFSKIFKSFFYSWLATLFSTSLILCICFGNSHPVAIVNAQTPDAYKLVNQGIESYKKGDFHAAIKPWEAALDSYQKNNDFRNIAIINENLARTYQQLGNKSLTLSYWEKVKDYYHSQKNLQKVGRILTEIAQIYSNSGQTKKSYQSFMWCKYINLSNRECITNCPGTTR | failed
2 | SGMLERLPLCGKAFADMMGKVDVWKWCNLSEFIVYYESFTNCTEMEANVVGCYWPNPLAQGFITGIHRQFFSNCTVDRVHLEDPPDEVLIPLIVIPVVLTVAMAGLVVWRSKRTDTLL | failed
3 | METRARYVLIGIFTLASILATLGFLLWLAKVQLDRTYAEYDILFTSVEGLGRASPVRYNGVDVGEVLNIAVDAEDPSLVRVRIQLAATTPVRTDTKAQVASQGVTGVSYVSLSGGAAPEPLTAEGDQWPPVIPSERSAVQALTADAPTLLAEAIALLKDIQTFTGPENRAAVESILTNADASVQNIAAITRDAAEATSRLNDFTARLDAMADRADVALASLETALEEGKGAAASARDTFEAVNRVVDRDVPPMIAQIRSAVSGIERSVAGIRNFADNGLPQYATLAAETRRTVTNLNSLIAQISRDPARFFLGSQTPSYRR | failed
4 | MYQVVASDLDGTLLSPDHFLTPYAKETLKLLTARGINFVFATGRHYIDVGQIRDNLGIRSYMITSNGARVHDSDGQQIFAHNLDRDIAADLFEIVRNDPKIVTNVYREDEWYMNRHRPEEMRFFKEAVFNYKLYEPGELDPQGISKVFFTCEDHEHLLPLEQAMNARWGDRVNVSFSTLTCLEVMAGGVSKGHALEAVAKMLGYTLSDCIAFGDGMNDAEMLSMAGKGCIMANAHQRLKDLHPELEVIGSNADDAVPRYLRKLYLD | not failed
5 | MASSDVLRQPDKNARPLALSGHVGFDSLPDQLVNKSTSQGFCFNILCIGETGIGKSTLMDTLFNTNFENFESSHFEPKVKLRAQTYDLQESNVRLKLTVVNTVGFGDQMNKQESYQHIVDYIDTQFESYLQEELKIKRSLHNYHDSRIHACLYFIAPSGHSLKSLDLVTMKKLDSKVNIIPVIAKADTISKSELHKFKIKIMSELVSNGVQIYQFPIDDETVAKINTAMNGHLPFAVVGSTEEVNIGNKMVKARQYPWGVVQVENENHCDFVKLREMLICVNMEDLREQTHTRHYELYRRCKLEEMGFKDTDPECKPVSLQQTYEAKRQEFLGELQRREEEMRQTFVQRVKEKEAELKDAERELQGKFEQLKRLHADEKSKLEEKRRSLEEEMSVFSKRKAATELLQAQSFNTSTNNKKDKDRKNSGFM | not failed
6 | MQNMKNQVRGSGMDARSNPANVSDGLQNSSGHIGTNTRYRLTKLGEQMARLPIDPKIARILLAAKKHDCMAEILVIASALSIQDPRERPLEARDAAAKAHERFTDKQSDFLTYLNIWDSFQRERDKGLSNKQLVQWCRQYFLSHLRMREWRELHHQLAQTAIEMGLTTKEAAFRRPPEVKQLTSSENAGDQDLSAKLKQKQLDKKQHRTQIRATKEAGYEQIHRALLTGLIANVGMKSPDSNDYTGARGSRFHLFPASALFKAKPKWVMAAELVETTRLYARDVAVIQPEWIEQEAPHLVRYHYFEPHWEQKRGEVVASERVTFYGLTVLPRRPVSYGKVAPEEAREIFIRSALVAQEYDLKADFFVHNKKLIKEITELEHKSRKQDVLVDDEALFAFYHERLPDFYMADSVSEGLCPANPQQTTPSPVGKGWGEGKTVAAQTNFSATAANPLPNPLPQEREQSASVSTVSGSLKTMSCEARLNFCEAKTKTESSLHSQRLSENYTPPFSDGLRPANPQQTTPSPVGEGWGEGKTVAAQTNFSATAANPLPQEREQSASALTVSDDPKPKKQPASQKGRLKPLPLADIRTFEAWLKTAERDNPRLLFLSRDDLMQHAAAHITEEQFPKHWQTADGKFKLSYRFEPHHPLDGVTLTLPLTVLNRISPAALEWLVPGMIREKIQLQIKALPKQIRRICVPVPEFITQFLSQNPDRNAPILPQLAQAIAKTAGDIRILEQINQDEWAAFRLPEHCYFNLRIIDDGEQELAMGRDLIQIQQQLGKAATTTFRDNTQEFERDNVTAWDIGILPESIKFARGKQQLTGYLGLQKEKDGRIALRLFDTSAAAGHAHRLGVIELMKLQLKEQVKDLNKGIQGFTQAAMLLKHINADTLRDDLTQAVCDRAFIGEDKLPRNEKAFKEQIKRARSRLPAVKEALSRYLQETAAAYAELNGKLGKHPLTHLLRLRLQTLLAPGFATRTPWAQWPRLPIYLKAMTLRLEKYSSNPARDAAREADIQELEQMWQEKTDGLAKQGQPVSDGLAAFKWMIEELRVSLFAQELKTPYPVSVKRLLKMWEILL | failed
7 | MNRSNQDITQPTAIIAVVGVGAEQGIGAAVCRRFAQEKFKVYVAGRTLNKVEKVAAAIHRQGGQAVAYVLDAENEQQLQTLFDHLNDQPEALAAVIHNVGGNIPSIFLQSSLKFFSQMWRSTFLSSVLVAQRSLSIFQKQQQGTLIFTGASASLRGKPFFAAFSMGKSALRSYALNLAELYRSQNIHVAHVMVDGMVDGDRVNKALWGLGRLARLTRGTGGLNIDAIAENYWMLYQQNVDLWTHELDLRPYQEKF | failed
8 | DAALCAFDADGVVTHWNREAERILGWTAAEAVGRRGFAGWAVRTADAEDVEARLMTAMQAPGRQVHEFALLTKDGGRVLVRTQSAAVHGPDGKPAGVYCAFSEVH | not failed
9 | MLTHHKNKLKTIEWTSYVWLAYLPYTIAAYIPVKSWHDWLWLLLVGGFLVLYILVVEKPHWRAVTMPAELVVTGLFAVFAANNFMIIFPGWQVSFLLGRRPKREFYGFALGYYAFLIGGCIRDYLQYPGVFGWHNGDVMGLVFPLLSPILAYTFSWSVERQRQLNQTNRRLKTIVERNERERIARDLHDTLGQSFSMITLKTELAKKLLVKAPEKVAPELDEIEQTSRQNLQLVREIVNNLHEQSLTEVLLAQTRNLAAVGVWTTTTGETQATKWPTTVQSCFAAVLVEAMTNVMRHAHAHEVRIDFVETAKIYQIKLKDDGKGGTLIRQGANGIAGMRTRLQAKQGTFAITSSRRGTQLILTLPKE | failed
10 | PEKPAKTQKTSLDEALQWRDSLDKLLQNNYGLASFKSFLKSEFSEENLEFWIACEDYKKIKSPAKMAEKAKQIYEEFIQTEAPKEVNIDHFTKDITMKNLVEPSLSSFDMAQKRIHALMEKDSLPRFVRSEFYQELI | not failed
11 | MDPEIQPPPGKAEIKAKIWKLKTAPKIKHFLWKLLSGALATGDNLKRRHIRNHPQCHRCCQEDETSQHLFFDCFYAQQVWRASGIPHQELRTTGITMETKMELLLSSCLANRQPQLFNLAIWILWRLWKSRNQLVFQQKSISWQNTLQRARNDVQEWEDTNTYVQSLNQQVHSSRHQQPTMARTKWQRPPSTWIKYNYDGAFNHQTRNAKAGWLMRDENGVYMGSGQAIGSTTSDSLESEFQALIIAMQHAWSQGYRKVIFEGDSKQVEELMNNEKLNFGRFNWIREGRFWQKRFEEAVFKWVPRTNNQPADILAKHHLQPNQSFKFHYYVPAFITSTLYYDH | failed
12 | MNIVSWKDANDEVAGGATTRREREVKEDQEETEVRATSGKTVIKKQPTSISSSSSSWMKSKDPRIVRVSRAFGGKDRHSKVCTLRGLRDRRVRLSVPTAIQLYDLQERLGVDQPSKAVDWLLDAAKEEIDELPPLPISPENFSIFNHHQSFLNLGQRPGQDPTQLGFKINGCVQKSTTTSREENDREKGENDVVYTNNHHVGSYGTYHNLEHHHHHHQHLSLQADYHSHQLHSLVPFPSQILVCPMTTSPTTTTIQSLFPSSSSAGSGTMETLDPRQMVSHFQMPLMGNSSSSSSQNISTLYSLLHGSSSNNGGRDIDNRMSSVQFNRTNSTTTANMSRHLGSERCTSRGSDHHM | failed
13 | MQSGDGRRGRLRIFFGFAAGVGKTYGMLTEAHELLMMGKHVVVGYIEPHDRPDTNRLLEGLPQIPPKNIFYKQMVLTEPDIDQIIQQKPEIVLIDELAHSNAEGSRNRKRYQDIDELLNAGIDVFTTVNVQHIESLNDIVEEVTGIEVKETVPDTFLRQATIRVIDVEPDELIERLEQGKIYANENAKRALKNFFIPQKLDQLRGLAIQRASDHINRISGKTIGIQSKLLTVVNDAFPKMTEKCIRWTARLAQGLVVDWTVIQVRTQENTPTNIPLADKLGAEVISIEEDDSFETIVEFAKMTGVTDIIMGKNLRQPWYEKIFIEAFDDRLLKRLKDTELHLIPFNEEKRSLFFKTRKVIEGGGKDLVIAIGGVFLATVVTELMQYIHVGDQNLMLIYISFVLLVARTTSGYFWSSLSSILSVLSFNWFFVEPLYSLTVYKQGYPFTLLLMLVVALMSSNLMIRLKKQADTSMKKEHQMEILYELNKRYVLVESRKQILDISATYLSRLLEREVIIFDRQVKTESVHCINEKKSILNNEDEAAVAFWAAKNQKEAGNGTDTLNGAKGFYLPIAAGRKTLAVLGIERNADLDLENDQLNYLKLVLTQIAVILEQTELKDEKEQVELENEREKVRSNLLRAVSHDLRTPLTVISGIAETLGIGNDLKEETQRKLLKDIQEESQWLIRMVENLLSITRINMDTMKVNKTAEPVEEVIEAVYKHLRKVYPDGQVDIHLPEEVIFIQADPILIEQALFNLIENAFRHGENDLPVKLNVYQEKEQTVFEIENHGEIPLKQFQKIQSNLSGTNEVPVDSKNGLGIGLSIVKTIVHAHNGKMEMTIGRGKTLVRIYLK | failed
14 | MASATEDPVLERYFKGHKAAITSLDLSPNGKQLATASWDTFLMLWNFKPHARAYRYVGHKDVVTSVQFSPHGNLLASASRDRTVRLWIPDKRGKFSEFKAHTAPVRSVDFSADGQFLATASEDKSIKVWSMYRQRFLYSLYRHTHWVRCAKFSPDGRLIVSCSEDKTIKIWDTTNKQCVNNFSDSVGFANFVDFNPSGTCIASAGSDQTVKVWDVRVNKLLQHYQVHSGGVNCISFHPSGNYLITASSDGTLKILDLLEGRLIYTLQGHTGPVFTVSFSKGGELFASGGADTQVLLWRTNFDELHCKGLTKRNLKRLHFDSPPHLLDIYPRTPHPHEEKVETVEINPKLEVIDLQISTPPVMDILSFDSTTTTETSGRTLPDKGEEACGYFLNPSLMSPECLPTTTKKKTEDMSDLPCESQRSIPLAVTDALEHIMEQLNVLTQTVSILEQRLTLTEDKLKDCLENQQKLFSAVQQKS | failed
15 | MRRELLLEKIETYKAIMPWYVLDYYQSKLAVPYSFTTLYEYLKEYKRFFDWLMDADLTQAPKIADIDLSTLEHLTKKDLEAFVLYLRERPSLNTYSTKEGLSQTTINRTLSALSSLYKYLTEEVENDQGEPYFYRNVMKKVSTKKKKETLASRAENIKQKLFLGDETLAFLDYVDKEYEQKLSNRAKSSFRKNKE | failed
16 | VYRRILLTVDEDDNTSSERAFRYATTLAHDYDVPLGICSVLESEDINIFDSLTPSKIQAKRKHVEDVVAEYVQLAEQRGVNQVEPLVYEGGDVDDVILEQVIPEFKPDLLVTGADTEFPHSKIAGAIGPRLARKAPISVIVVR | failed
17 | MVFIDNLGLMLFILPLVSVLIAYTTVQAFIGFRKTGYEAIKRSLDDSILPAAILGTIIIILSLWGEFSWTLPGSYNILFYDVYLLLGITILSYSVTVYMGKRLQSTGIFALFVGLITIYYGASGYNLGLTKEPLALLALYTTYGIAGILGYPVTLALDRLRDQQGVKDPKLEGWMYAFFILFWIFVIIAGIIGAFIAVETIPAHLAHPP | failed
18 | MNLINMSNFTSGRRLLRFAVVADSHLNPVNAGNTSPWQTNHLANPRNEVVVAAINRIAPAFTVHVGDVVHPLPHSTDYDGAADFATTLYRGLQAPFYIAPGNHDIGDKHLPGNPAACISADSCGKYEQHFGAQWQAFTEGNVCFIIINACLLGSGLPQEDAQWQFLQSRLAEEKAAGRRLFLFTHYPPFVTAPDEENHYDNIDHGPRRRLLELTASAGVEALFAGHVHTFFLNRHAGMWSYALPSSTNFRQDYAELFRVEPGEELGRNDLGKFGFFVVDIHEHGHIARFVRTYGSTDPAQGEEIALQVEGDVREHAAGTVAADFRHDWARVEALPYNPPLDAFVRKRVRNDYYILNLWDAGMRGVRLPIHDIADEQAFERVRLLGELGHRCLVFGTAVPDAHLLERLASLGPALEGYEWIGPDSAIAAHAAGQFARRGIRLFVAPVMQPPSSHSQGQYDHNMTSGIALGELDHLARFRPQRADASAPGVVVRIAGDEPVLESVRQAVEQAASHGVAIALHINLANRKSALVNDDDQAQAARVAEAAIAKAAYPDVPMTLDTFMDIDRGYFARHGLVDRRNNPRPAATVLRRLSERLRGHAVRIGAITREPAQSTVRIALGDQTLDVRIGRDISF | failed
